Results on 2 molecules are retold here after publication PMC6508567.

Assay [1] concerns the target β-amylase WT (barley (Hordeum vulgare) cv. Harrington) (UniProt P16098). In words: MST; β-amylase labelled with an NHS-ester fluorescent dye (70 nM), unlabelled serpin Z4 from 40 μM to 1 nM; PBS with 0.1% Tween-20; Monolith NT.115; three replicates combined.
For assay [2] the target is unchanged.
Assay [3] has the same target. This is another data set of the same source.
Assay [4] shares this target. In words: SPR; β-amylase immobilised by amine coupling on a CM5 chip, serpin Z4 injected at 0.6, 0.5, 0.4, 0.3 and 0.2 μM; PBS; Biacore T200.
The target is the same in assay [5]. This is another data set of the same source.

B1: serpin Z4 (natural protein)
chain: MATTLATDVRLSIAHQTRFALRLRSAISSNPERAAGNVAFSPLSLHVALSLITAGAAATRDQLVAILGDGGAGDAKELNALAEQVVQFVLANESSTGGPRIAFANGIFVDASLSLKPSFEELAVCQYKAKTQSVDFQHKTLEAVGQVNSWVEQVTTGLIKQILPPGSVDNTTKLILGNALYFKGAWDQKFDESNTKCDSFHLLDGSSIQTQFMSSTKKQYISSSDNLKVLKLPYAKGHDKRQFSMYILLPGAQDGLWSLAKRLSTEPEFIENHIPKQTVEVGRFQLPKFKISYQFEASSLLRALGLQLPFSEEADLSEMVDSSQGLEISHVFHKSFVEVNEEGTEAGAATVAMGVAMSMPLKVDLVDFVANHPFLFLIREDIAGVVVFVGHVTNPLISA
With B1, in assay [1], the Kd came out at 200 nM. Also, in assay [2], the EC50 of serpin Z4 for the enhancement of β-amylase activity, Betamyl-3 method is 180 nM and the EC50 of serpin Z4 for the enhancement of β-amylase activity, DNSA method was found to be 300 nM. In assay [3], this molecule returned a β-amylase activity (DNSA) over 37-62°C with serpin Z4 at 1:5; at 50°C against β-amylase alone at optimal temperatures of 60%. In assay [4], this molecule displayed a Kd of 142 nM. Besides, in assay [5], the Vmax of β-amylase with serpin Z4 at a 1:5 molar ratio (Lineweaver-Burk), with or without DTT was 2 fold.

B2: serpin BsZx (natural protein)
chain: MATTDIRLSIAHQTRFAVRLASAISSPSHAKGSSGNAAFSPLSLHVALSLVAAGAAATRDQLAATLGAAEKGDAEGLHALAEQVVQVVLADASGAGGPRSFANVFVDSSLKLKPSFKDLVVGKYKGETQSVDFQTKAPEVAGQVNSWVEKITTGLIKEILPAGSVDSTTRLVLGNALYFKGSWTEKFDASKTKDEKFHLLDGSSVQTPFMSSTKKQYISSYDSLKVLKLPYQQGGDKRQFSMYILLPEAQDGLWNLANKLSTEPEFMEKHMPMQKVPVGQFKLPKFKISFGFEASDMLKGLGLQLPFSSEADLSEMVDSPAARSLYVSSVFHKSFVEVNEEGTEAAARTARVVTLRSLPVEPVKVDFVADHPFLFLIREDLTGVVLFVGHVFNPLVSA
As to B2, the inhibition factor X inh from the residual peptidase activity of chymotrypsin on casein, serpin:protease 2:1 with chymotrypsin is 0.88.

Broadly, the Kd is the concentration at which binding is half-saturated.
